Experimental findings from patent US20260098096A1 are described below.

The assay addresses Human CCR8 (human) (UniProt P51685). Description: cell-based or functional assay.

Sequence of Human CCR8 (human) (P51685 whole entry): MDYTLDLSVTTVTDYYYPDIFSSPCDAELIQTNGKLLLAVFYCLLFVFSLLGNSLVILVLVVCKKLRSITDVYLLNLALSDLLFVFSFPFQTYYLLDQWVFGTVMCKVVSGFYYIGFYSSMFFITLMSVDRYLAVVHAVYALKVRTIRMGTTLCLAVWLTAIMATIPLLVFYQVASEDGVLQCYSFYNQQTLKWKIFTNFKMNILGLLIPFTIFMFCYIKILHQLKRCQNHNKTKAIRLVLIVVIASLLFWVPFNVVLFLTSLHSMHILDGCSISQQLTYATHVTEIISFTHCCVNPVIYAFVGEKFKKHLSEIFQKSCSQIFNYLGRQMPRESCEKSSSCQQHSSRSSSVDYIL

The substance “human CCL1 (from UniProt P22362 24-96) (ligand)” showed an EC90 of chemotaxis of hCCR8 L1.2 cells of 5.84 nM.
